Measured values from US20200239541A1 (XYPHOS BIOSCIENCES, published 2020).
Positions count from the first letter of the chain named.

Columns and labels:
Experiment in all cases: ELISA, ligand-Fc coated, biotinylated NKG2D titrated
[1] = molecular target: T1, Y199A mutant NKG2D ectodomain (His-avitag, biotinylated) (human)
T1 construct: not shown: N-terminal His-avitag
T1 chain: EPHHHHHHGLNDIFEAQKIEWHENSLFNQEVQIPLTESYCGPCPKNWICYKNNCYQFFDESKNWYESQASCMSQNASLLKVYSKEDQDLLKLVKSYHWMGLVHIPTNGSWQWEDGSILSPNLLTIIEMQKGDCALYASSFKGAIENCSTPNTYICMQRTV
Procedure: (§1) In addition to purifying the above 3 Fc-fusion proteins NKG2D ligand-Fc fusion proteins MICB-Fc, ULBP1-Fc, ULBP2-Fc, ULBP3-Fc, and ULBP4-Fc were purchased from R&D Systems, Inc. (Minneapolis, Minn.). Binding of the different α1-α2 domain-Fc fusions to both natural and non-natural NKG2D ectodomain proteins was analyzed using a plate-based ELISA method. All of the natural and non-natural α1-α2 domain-Fc fusions were coated overnight at 4° C. onto separate wells of Maxisorp 96 well plates using a coating concentration of 2 μg/ml in phosphate-buffered saline (PBS). The plates were washed 3-times in PBS/0.05% Tween20 at 20-22° C., and blocked with 0.5% bovine serum albumin for 2 hours. The biotinylated natural and non-natural NKG2D receptor proteins were titrated against the plate-bound NKG2D ligands for 2 hours at 20-22° C., washed 3 times with PBS/0.05% Tween20 at 20-22° C., and the bound NKG2D proteins subsequently detected using a streptavidin-HRP secondary detection step and developed with 1-Step Ultra TMB Elisa.

[2] = molecular target: T2, Y152A mutant NKG2D ectodomain (His-avitag, biotinylated) (human)
T2 construct: also called Y152A non-natural NKG2D receptor; not shown: N-terminal His-avitag
T2 chain: T1 chain with Y96A, A143Y
Procedure: as §1

[3] = molecular target: T3, double Y152A plus Y199A mutant NKG2D ectodomain (His-avitag, biotinylated) (human)
T3 construct: not shown: N-terminal His-avitag
T3 chain: T1 chain with Y96A
Procedure: as §1

Measured: binding result

B1: MICA-Fc (α1-α2-α3-Fc fusion, made in 293 cells) (Fc fusion)
chain: EPHSLRYNLTVLSWDGSVQSGFLTEVHLDGQPFLRCDRQKCRAKPQGQWAEDVLGNKTWDRETRDLTGNGKDLRMTLAHIKDQKEGLHSLQEIRVCEIHEDNSTRSSQHFYYDGELFLSQNLETKEWTMPQSSRAQTLAMNVRNFLKEDAMKTKTHYHAMHADCLQELRRYLKSGVVLRRTVPPMVNVTRSEASEGNITVTCRASGFYPWNITLSWRQDGVSLSHDTQQWGDVLPDGNGTYQTWVATRISQGEEQRFTCYMEHSGNHSTHPVPSGKIEGRMDPKSCDKTHTCPPCPAPELLGGPSVFLFPPKPKDTLMISRTPEVTCVVVDVSHEDPEVKFNWYVDGVEVHNAKTKPREEQYNSTYRVVSVLTVLHQDWLNGKEYKCKVSNKALPAPIEKTISKAKGQPREPQVYTLPPSRDELTKNQVSLTCLVKGF
no binding: all assays above
